Reference: the nanobody polyreactivity screen of Harvey et al. (2022)

Experiment: yeast display, Sf9 membrane polyspecificity reagent, FACS + sequencing; frameworks hold sequencing errors
Summary of the method: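 Nanobodies came from a synthetic yeast display library in Saccharomyces cerevisiae BJ5465, induced with galactose for 36–48 hours and stained for 1 hour at 4 °C with 10% biotinylated, detergent-solubilized Sf9 membrane reagent. Cells were enriched on streptavidin microbeads and then FACS-sorted, with low and high (top ~1%) gates set on anti-HA fluorescence for expression and streptavidin fluorescence for reagent binding. Each polyreactivity label reflects the gate a clone came from. Genes were amplified by colony PCR, sequenced by MiSeq 2 × 250 and filtered by CDR length.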

Sequence | polyreactivity (PSR sort gate)
QVQLVESGGGLVQAGGSLRLSCAASGSTFYYYAMGWYRQAPGKERELVASIRSRDGSTRYADSVKGRFTISRDNAKNTVYLQMNSLKPEDTAVYYCAAVGYRRVDAGSSASRYDYWGQGTQVTVSS | high polyreactivity
QVQLVESGGGLVQAGGSLRLSCAASGSTFYYYAMGWYRQAPGKERELVAVITFSGGSTNYADSVKGRFTISRDNAKNTVYLQMNSLKPEDTAVYYCAADTYSYRYSNDYWGQGTQVTVSS | low polyreactivity
QVQLVESGGGLVQAGGSLRLSCAASGSTFYYYAMGWYRQAPGKESELVAAISPSGDSTYNADSVKGRFTISRENSKNTVYLQMNSLKPEDTAVYYFAAQYYFYPQEFDDWGQGTQVTVSS | low polyreactivity
QVQLVESGGGLVQAGGSLRLSCAASGSTFYYYAMGWYSQAPGKERDLVAVISWGGGSTYYADSVKGRFTISRDNAKNTVYLQMNSLKPEDTAVYYCAAVYDAYQTTDEYDYWGQGTQVTVSS | low polyreactivity
QVQLVESGGGLVQAGGSLRLSCAASGSTFYYYVRGWYRQAPGKERELVAAINSGGSTYYADSVKGRFTISRDNAKNTVYLQMNSLKPEDTAVYYCAKSWSYWYQYYYWGQGSQVTVSS | low polyreactivity
QVQLVESGGGLVQAGGSLRLSCAASGSTHNQNAMGWSRQAPGKETELVAAISSNGGTTYYADSVKWRFTISRDNAKNTVYLQMNSLKQEDTAVYYCAADWDRYVPRSYYRVSWYDYWGQGTQVTVSS | low polyreactivity
QVQLVESGGGLVQAGGSLRLSCAASGSTIDTYAMGWYRQAPGKERELVAAIRYTGGRTYYADSVKGRCTISSDNAKNTVYLHMNSLKPEDTAVYYCNADGTKWVRETYDYWGQGTQVTVSS | low polyreactivity
QVQLVESGGGLVQAGGSLRLSCAASGSTIEDNTMGWYRQAPGKERELVAAISNSGGSTYYADSVKGRFTISRDYAKNTVYLQMISLKPEDTAVYYCAADFYDPFDYWGQGTQVTVSS | low polyreactivity
QVQLVESGGGLVQAGGSLRLSCAASGSTIEDYAMGWYRQAPGKERELVAAISWRSDITYYADSVKGRFTISRDNAKNTVYLQMNSLKPEDTAVYYCAADNSYHWLDREFDYEFDYWGQGTQVTVSS | high polyreactivity
QVQLVESGGGLVQAGGSLRLSCAASGSTIFENVMGWYRQAPGKEREFVAAINTSGGSTYYADSVKGRFTISRDNAKNTVYLQMNILKPEDTAVYYCARDSYWELDYWGQGTQVTVSS | low polyreactivity
QVQLVESGGGLVQAGGSLRLSCAASGSTIFGNVMGWYRQAPGKERELVAVITNRGGSTYYADSVKGRFTISRDNAKNTVYLQMNSLKPEDTAVYYCATRSRPRSYYYWGQGTQVTVSS | high polyreactivity
QVQLVESGGGLVQAGGSLRLSCAASGSTIFGNVMGWYRQAPGKERELVAVITNRGGSTYYADSVKGRFTISRDNAKNTVYLQMNSLTPEDTAVYYCNARPLYHFWYYSGEEYGYWGQGTQVSVSS | high polyreactivity
QVQLVESGGGLVQAGGSLRLSCAASGSTIFSYAMGWYRQAPGKERELVAAISWIDDGTYYADSVKGRFTISRDNAKNTVYLQMNSLKPEDTAVYYCAADIGAYRTWDYEYWGQGTQVTVSS | low polyreactivity
QVQLVESGGGLVQAGGSLRLSCAASGSTIGAYAMGWYRQAPGKERELVAAITFSVGSTYYADSVKGRFTISRDNAKNTVYLQMNSLKPEDTAVYYCAADYYIYRSKYYQSTIQGYYYWGQGTQVTVSS | high polyreactivity
QVQLVESGGGLVQAGGSLRLSCAASGSTIGGYAMGWYRQAPGKERELVAAISWDDVRTYYADSVKGRFTISRDNAKNTVYLLMNSLKPEDTAVYYCNTDGLIAIRGLWWVEYDYWGQGTQVTVSS | low polyreactivity
QVQLVESGGGLVQAGGSLRLSCAASGSTIGGYAMGWYRQAPGKERELVAAITRSGGRTYYADSVKGRFTISRDNAKKTVYLQMNSLKPEDTAVYFCATLVTNARYDSWGQGTQVTVSS | high polyreactivity
QVQLVESGGGLVQAGGSLRLSCAASGSTIGSYAMRLSRQAPGTERELVAVITSDGRTNYADSVKGRFTISRDNAKNTVYLQMNSLKPEDTAVYYCAAGYGRWRYGTGVYDNYYYWGQGTQVTVSS | low polyreactivity
QVQLVESGGGLVQAGGSLRLSCAASGSTINKYAMGWYRQAPGKERELVAAISRSGGSTNYADSVKGRFTISRDNAKNTVYLQMNSLKPEDTAVYYCNAGYGRWQRHDYWGQGTQVTVSS | high polyreactivity
QVQLVESGGGLVQAGGSLRLSCAASGSTINQYPMGWYRQAPGKERDLVAAITRRGGSTYYADSVKGRCTISSDNAKNTVYLQLNSLKPEDTAVYYCAAAYPYTTVSYDYWGQGTQVTVSS | high polyreactivity
QVQLVESGGGLVQAGGSLRLSCAASGSTIPGNAMGWYRQAHGKERELVASISGGGDSTYYADSVKGRFTISRDNAKNTVYLQMKSLKPEDTAVYYCAADYRQEPGYTGYYYLGQGTQVTVSS | low polyreactivity
QVQLVESGGGLVQAGGSLRLSCAASGSTIPPNAMGWYRQAPGKERELVAVISNGGSNTRYADSVKGRFTISRDNAKNTVYLQMNRLKPEDTAVYYCAADYEYSGYGYWGQGTQVTVSS | high polyreactivity
QVQLVESGGGLVQAGGSLRLSCAASGSTIPRYAMGWYRQAPGKERELVAAISGRGGSTYYADSVKGRFTISRDNAKNSFYFQLISLKPEDTAVYYCNAYRRYYTMYYWGQGTQVTVSS | high polyreactivity

Sequence | polyreactivity (PSR sort gate)
QVQLVESGGGLVQAGGSLRLSCAASGSTIPSYAMGWYRPAPGKETELVASITYSDGTTRYADSVKGRFTISRDNAKNTVYLQMNSLIPEDTAVYYCNAVYYREGMDYWGQGTQVTVSS | low polyreactivity
QVQLVESGGGLVQAGGSLRLSCAASGSTIRLYAMGWYRQAPGKESELVAAISVSGGSTHYADSVKGRFTISRDNAKNTVYLQMNSLKPEYTAVYYFNAAGNPVSRYHYDYWGQGTQVTVSS | high polyreactivity
QVQLVESGGGLVQAGGSLRLSCAASGSTIRNYAMGWYRQAPGKERELVAAISSGGRTYYADSVKGRFTISRDNAKNTVYLQMNSLKPEDTAVYYCKGRSYSRMYYWGQGTQVTVSS | high polyreactivity
QVQLVESGGGLVQAGGSLRLSCAASGSTIRVYGMGWYRQAPGKERELVAAIRWIGGRTYYADSVKARFTISRDNAKNTVYLQMNSLKPEDTAVYYCNARAGPVRFDYWGQGTQVTVAS | low polyreactivity
QVQLVESGGGLVQAGGSLRLSCAASGSTIRYNAMGWYRQAPGKERELVAAISRSGGSTYYADSVKGRFTISRDNAKNTVYLQRTSLKTEDTAVYYCAADRGARGDYWGQGTQVTVSS | high polyreactivity
QVQLVESGGGLVQAGGSLRLSCAASGSTIRYNAMGWYRQAPGKERELVAAISRTGGTTYYADSVKGRFTISRDNAKNTVYLQMNSLKPEDTAVYYCNAVQAPYLRYDYWGQGTQVTVSS | high polyreactivity
QVQLVESGGGLVQAGGSLRLSCAASGSTISFLIMGWYRQAPGKERELVAAISRSGGRTYYADSVKGRFTISRDNAKNTVYFQMNSLKPEDTAVYYCAADYVSVDRIRYGYWGQGTQVTVSS | high polyreactivity
QVQLVESGGGLVQAGGSLRLSCAASGSTITRYAMGWYRQAPGKERELVAVISRSGGSTYYADSVKGRFTISRDNAKNTVYLQMNSLKPEDTAVYYCAAKYYGGRRSPYSYGYWGQGTQVTVSS | high polyreactivity
QVQLVESGGGLVQAGGSLRLSCAASGSTIVRYAMGWYRQAPGKERELVAAISGGGSTSYADSVKGRFTISRDNAKNTVYLQMNSLKPEDTAVYYCAKAGYRSEFEYWGQGTQVTVSS | low polyreactivity
QVQLVESGGGLVQAGGSLRLSCAASGSTIWSNAMGWYIQAPGKERELVAVISGGTSTNYADSVKGRFTISRDNAKNTVYLQMNSLKPEDTAVYYCAADWGSYLILINDTEMDYWGQGTQVTVSS | low polyreactivity
QVQLVESGGGLVQAGGSLRLSCAASGSTIYRYAMGGYRQAPGKERELVAAITWSGGSTYYADSVKGRFTISRDNAKNTVYLQMNSLKPADTAVYYCNAVARYYYKDQTIIHSPREDYWGQGTQVTVSS | low polyreactivity
QVQLVESGGGLVQAGGSLRLSCAASGSTIYTYAMGWSRQAPGKERELVAAINRSGGTTYYADSVKGRFTISRDNAKNTVYLQMNSLKPEDTADYYCARRRYGYDYWGQGTQVTVSS | high polyreactivity
QVQLVESGGGLVQAGGSLRLSCAASGSTIYTYVMGWYIQAPGKERELVAAISWSGSSTYYADSVKGRCTISRDNAKNTVYLQINSLKPEDTAVYYCNAKYRRGWWGVEYGYWGQGTQVTVSS | low polyreactivity
QVQLVESGGGLVQAGGSLRLSCAASGSTIYVNAMGWYIQAPGKERELVAAIRSSAGNTTYADSVKGRFTISRDNAKNTVYLQMNSLKPEVTAVYYCAADSRPYLRDYWGQGTQVTVSS | low polyreactivity
QVQLVESGGGLVQAGGSLRLSCAASGSTLAKKAMGWYRQEPGKERELVAAISKNGGTTYYADSVKGRFTISRDNAKNTVYLQMNSLKPEDTAVYYCAVSIWGWFASGFDYWGQGTQVTVSS | high polyreactivity
QVQLVESGGGLVQAGGSLRLSCAASGSTLALYTMGWYRQAPGKERELVAAISKNGGRTYYADSVKGRFTISRDNAKNTVYLKMNSLKPEDTAVYYCAAASGSYRGYDYWGQGTQVTVSS | high polyreactivity
QVQLVESGGGLVQAGGSLRLSCAASGSTLAPYAMGGYRQAPGKERELVASINWGGTTTYYADSVKGRFTISRDNAKNTVYLQMNSLIPEDTAVYYCAALGLRWGRSGYYYEYYYWGQGTQVTVSS | high polyreactivity
QVQLVESGGGLVQAGGSLRLSCAASGSTLAQYAMGWYRQAPGKETELVADISWSGGSTYYADSVKGRFTISRDNAKNTVYLQMNSLKPDDTAVYYCNAYAFDSVREEDYWGQGTQGTVSS | low polyreactivity
QVQLVESGGGLVQAGGSLRLSCAASGSTLATYTMGWYRQAPGKERELVAAISFGGSTYYADSVKGRFTISRDNAKNTVYLQMNSLKPEDTAVYYCAVYGDSYWGAYYYSDGYWGQGSQVTVSS | low polyreactivity
QVQLVESGGGLVQAGGSLRLSCAASGSTLAVYAKGWSRQAPGKERELVAVIDRGGSTYYADSVKGRFTISRDNAKNTVYLQLNCLKPEDTAVYFCNARRVKGYGYWGQGTQVTVSS | high polyreactivity
QVQLVESGGGLVQAGGSLRLSCAASGSTLDIYAMGWYRQAPGKERELVAAITSGGSTNYADSVKGRFTISRDNAKTTVYLQLNSLKPEDTAVYSCNARYFRGYDYWGQGTQVSVSS | high polyreactivity
